Data from the nanobody polyreactivity screen of Harvey et al. (2022).

Assay: yeast display, Sf9 membrane polyspecificity reagent, FACS + sequencing; frameworks hold sequencing errors
Method in brief: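 A nanobody's polyreactivity label depends on the gate it was sorted from. Yeast display cells were stained with 10% biotinylated, detergent-solubilized Sf9 membrane reagent for 1 hour at 4 °C, enriched on streptavidin microbeads and sorted by FACS. The low and high (top ~1%) gates were set on anti-HA fluorescence for expression and streptavidin fluorescence for reagent binding.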

Row | Sequence | polyreactivity (PSR sort gate)
1 | QVQLVESGGGLVQAGGSLRLSCAASGSIFWGNAMGWYRQAPGKERELVAAITGSGGSSYYADSVKGRFTISRDNAKNRVYLLMNSVKPEDTAVYYCADLFRTFYYWGQGTQVTVSS | high polyreactivity
2 | QVQLVESGGGLVQAGGSLRLSCAASGSIFWGYAMGWYRQAPGKERELVATISWTGGSTYYADSVKGRFTISRDNAKNTVYLQMNSLKPEDTAVYYGAKVIIHYYYVVNLVDVDYWGQGTQVTVSS | low polyreactivity
3 | QVQLVESGGGLVQAGGSLRLSCAASGSIFWIYAMGWYRQAPGKERELVARITWTGGRTYYADSVKGRFTISRDNAKNTVYLQMNSLKPEDTAVYYCAVTSYRQRGAFDYWGQGSQVTVSS | high polyreactivity
4 | QVQLVESGGGLVQAGGSLRLSCAASGSIFWLYAMGWYRQAPGKERELVAAIDSGDSTKYADSVKGRFTISRDNAKNTVYLQMNSLKPEDTAVYYCNVRLGDRFFRHDYWGQGTQVTVSS | low polyreactivity
5 | QVQLVESGGGLVQAGGSLRLSCAASGSIFWLYAMGWYRQAPGKERELVAAMSWSGTSTNYADSVKGRFTISRDIAKNTVYLQMNRLKPEDTAVYYCAKRWNNQKLFGYEEEYDYWGQGTQVTGSS | low polyreactivity
6 | QVQLVESGGGLVQAGGSLRLSCAASGSIFWLYTMGWYRQAPGKERELVATITQSGSTYYADSVKGRFTISRDNAKNTVYLQMNSLKPEDTAVYYCAARVVWGPESDYWGQGTQVTVSS | low polyreactivity
7 | QVQLVESGGGLVQAGGSLRLSCAASGSIFWPNPMGGYRQAPGKERELVAGSTFSGGSTYADSVKGRFTISRDNAKNTVYLQMNSLKPEDTAVYYCAVVYYRDPRMDFWRQGTQVTVSS | high polyreactivity
8 | QVQLVESGGGLVQAGGSLRLSCAASGSIFWRNAMGWYRQAPGKERELVAAISRVGSTNYADSVKGRFTISRDNAKNTVYLQMNSLKPEDTAVYYCAADGTVVRDFDYWGQGTQVTVSS | low polyreactivity
9 | QVQLVESGGGLVQAGGSLRLSCAASGSIFWRNVMGWYRQAPGKERELVAAISSGGSTYYADSVKGRFTISRDNAKNTVYLQMNSLKPEDTAVYYCAAPRYDYWGQGTQVTVSS | high polyreactivity
10 | QVQLVESGGGLVQAGGSLRLSCAASGSIFWSYAMGWYRQAPGKERELVAAINWSGGRTYYADSVKGRFTISRDNAQNTVYLQMNSLKPEDTAVYYCNAPVHTAQGDEYDYWGQGTQVTVSS | high polyreactivity
11 | QVQLVESGGGLVQAGGSLRLSCAASGSIFWSYAMGWYRQAPGKERELVAVINWSGGSTYYADSVKGRFTISRDNAKNTVYLQMNSLKPEDTAVYYCNKDLGPTKRPFTFDYWGQGTQVTVSS | low polyreactivity
12 | QVQLVESGGGLVQAGGSLRLSCAASGSIFWSYAMGWYRQATGKERELVAAITWSGGNTYADSVKGRFTISRDNAKNTVYLQMNSLKPEDTAVYYCAADPAHGTKWYVYPSHDDYWGQGTQVTVSS | low polyreactivity
13 | QVQLVESGGGLVQAGGSLRLSCAASGSIFWTNAMGWYRQAPGKERELVARITYSGGSTYSADSVKGRFTISRDNAKNTVYLQMNSLKPEDTAVYYCNARTHGWPYSRYYYWGQGTQVTVSS | high polyreactivity
14 | QVQLVESGGGLVQAGGSLRLSCAASGSIFWWNAMGWYRQAPGKERELVASIGDSTYYADSVKGRFTISRDNAKNTVYLQMNSLKPEDTAVYYCYAEVLNYLVFGYQLGYDYWGQGTQVTVSS | low polyreactivity
15 | QVQLVESGGGLVQAGGSLRLSCAASGSIFWYNDMGWYRQAPGKEREFVAAITWDDGSTYYADSVKGRFTISRDNAKNTVYLQMNSLKPEDTAVYYCAAYVWYYDPASGWFITDYDYWGQGTQVTVSS | high polyreactivity
16 | QVQLVESGGGLVQAGGSLRLSCAASGSIFWYNTMGWYRPAPGKERELVAAISKSGTSTYYADSVKGRFTISRDNAKNTVYLQMNSLKPEDTAVYYCAAALPGYGDYYYWGQGTQVTVSS | high polyreactivity

Row | Sequence | polyreactivity (PSR sort gate)
17 | QVQLVESGGGLVQAGGSLRLSCAASGSIFWYNTMGWYRQAPGKERELVASISWDGGTYYADSVKGRFTISRDNAKNTVYLQMNSLKPEVTAVYYCNVAWYWGYDYWGQGTQVTVSS | low polyreactivity
18 | QVQLVESGGGLVQAGGSLRLSCAASGSIFWYYAMGWYRQAPGKERELVAAISASGSSTYYADSVKGRFTISRDNAKNTVYLQMNSLKPEDTAVYDCAATYSLYNDWLYHYFPEEYDYWGQGTQVTVSS | low polyreactivity
19 | QVQLVESGGGLVQAGGSLRLSCAASGSIFWYYAMGWYRQAPGKERELVAAISSGGSTYYADSVKGRYTISRDNAKNTVYLQMNSLKPEDTAVYYCAAGAFGQILNYWGQGTQVTVSS | high polyreactivity
20 | QVQLVESGGGLVQAGGSLRLSCAASGSIFYANAMGWYRQAPGKERELVAAISRSGGRTYYADSVKGRFTISRDNAKNTVYLQMNSLKPEDTAVYYCNAVYVSYTYQQTRSGGYDYWGQGTQVTVSS | high polyreactivity
21 | QVQLVESGGGLVQAGGSLRLSCAASGSIFYANVKGWSRQAPGKERELDATISISSSTNYADSVKGRFTISRDNAKNTVYLQMNSLKPEDTAVYYCNASFGHHYSYWVDTSYDYWGQGTQVTVSS | low polyreactivity
22 | QVQLVESGGGLVQAGGSLRLSCAASGSIFYAYAMGWYRQAPGKERELVAGINTRGGSTYYADSVKGRFTISRDNAKNTVYLQMNSLKPEDTAVYYCNARTLTVLEFDYWGQGTQVTVSS | low polyreactivity
23 | QVQLVESGGGLVQAGGSLRLSCAASGSIFYAYAMGWYRQAPGKERELVATITSGGSTNYADSVKGRFTISRDNAKNTVYLQMNSLKPEDTAVYYCAVDISYSLGGGFGYDYWGQGTQVTVSS | low polyreactivity
24 | QVQLVESGGGLVQAGGSLRLSCAASGSIFYAYYMGWYRQAPGKESELVAAINWSGDSTYYADSVKGRFTISRDNAKNTVYLQMNSLKPEDTAVYYCAAVSGSGDSGEYDYWGQGTQVTVSS | low polyreactivity
25 | QVQLVESGGGLVQAGGSLRLSCAASGSIFYDYALGWYRQAPGKERELVAAINSGDSTYYADSVKGRFTISRDNAKNTVYLQMNSLKPEDTAVYYCAATYFSPFIEYDYWGQGTQVTVSS | low polyreactivity
26 | QVQLVESGGGLVQAGGSLRLSCAASGSIFYENTMGWYRQAPGKERELVASISGGGSTYADSVKGRFTISRDNAKHTVYLQMNSLKPEDTAVYYCNADSSTEYDYWGQGTQVTVSA | low polyreactivity
27 | QVQLVESGGGLVQAGGSLRLSCAASGSIFYENVMGWYRQAPGKERELVAGISRSGGRTYYADSVKGRFTISRDNAKNTVYFQMNSLKPEDTAVYYCAALTPRNRYRKFDYWGQGTQVTVSS | high polyreactivity
28 | QVQLVESGGGLVQAGGSLRLSCAASGSIFYEYAMGWYRQAPGKERELLASINRGGGSTYYADSVKGRFTISRDNAKNTVYLQMNSLKPEDTAVYYCAAQWKYRQSYLDYYWGQGTQVTVSS | low polyreactivity
29 | QVQLVESGGGLVQAGGSLRLSCAASGSIFYEYAMGWYRQAPGKERELVAAINWDGGTYYADSVKGRFTISRDNAKNTVYLQMNSLKPEDTAVYYCAKPYDWGVYSQSDSDYWGQGTQVTVSS | low polyreactivity
30 | QVQLVESGGGLVQAGGSLRLSCAASGSIFYFNAMGWYRQAPGKERELVAAINYSGGSTYYADSVKGRFTISRDNAKNTVYLQMNSLKPEDTAVYYCAAVTYFGWYPYRMEYWGQGTQVTVSS | high polyreactivity
31 | QVQLVESGGGLVQAGGSLRLSCAASGSIFYFYAMGWYRQAPGKERELVAAITSGGSTYYADSVEGRFTISRDNAKNTVYLQMNSLKPEDTAVYYCAAQFYDLYHGTTYDYWGQGTQVTVSS | high polyreactivity
32 | QVQLVESGGGLVQAGGSLRLSCAASGSIFYGNAMGWYRQAPGKERELVAAISSSGGSTYYADSVKGRFTISRDNAKNTVYLQMISLKPEDTAVYYCAADSTYYNSYDYWGQGTQVTVSS | low polyreactivity
